# ± gives the uncertainty stated by the source.
# Experiment: amyloid nucleation score (Sup35N fusion, yeast selection) (log enrichment); library NNK3; higher = more nucleation; inactive = no reads after selection
# Method in brief: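 Using DiMSum, nucleation scores were taken as the log enrichment of output over input reads, centred on the mode score of non-aggregating sequences. The input and output reads came from Illumina sequencing of plasmid inserts, with sequences under 100 input reads excluded. The yeast were psi-negative, expressed Sup35N fused to peptides of 20 random codons, were induced with 100 μM copper sulfate for 24 hours, and were grown 7 days at 30°C on medium lacking adenine and uracil.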
row,Substance,amyloid nucleation score
1,NVISV,inactive
2,NVLQYYNRLGTSRCIRAAFL,inactive
3,NVLVKYVPAALFRSNSLQET,inactive
4,NVMSLSMWSSLSLWYSGLS,inactive
5,NVNGSFKI,inactive
6,NVNWIRFDFHFVFV,2 ± 0.071
7,NVPLKWLTWYNRRAATWVEM,inactive
8,NVQRNVNAE,inactive
9,NVTNSRHHLQFGYMRAMVNV,inactive
10,NVTTNRVTKLLAN,inactive
11,NVVFSFMVTRCDRLWS,0.661 ± 0.27
12,NVVSWGHDLYGKKAPALWEV,inactive
13,NVVYTFPLYASDMGIGV,inactive
14,NVYIVSIRMFCDYRVTAPKT,2.35 ± 0.068
15,NVYSPKRVLSGCLSPDISEF,inactive
16,NWGMTNAFFISGKRSGMSSM,0.42 ± 0.38
17,NWLCDRVRCCWKLNNNDMKL,-0.22 ± 0.88
18,NWVAKMGFVHGSSKRYSPPK,0.111 ± 0.61
19,NYDIASLFTTNKSFV,inactive
20,NYDIILMLGWSVTFKLKVRF,-0.36 ± 1.1
21,NYFCDIFNLSVNSILNYY,0.68 ± 0.19
22,NYGAN,inactive
23,NYGPGHRGGSN,inactive
24,NYICVK,inactive

row,Substance,amyloid nucleation score
1,NYIWLFVLYAIVRFSHWLDF,0.779 ± 0.14
2,NYRRTCTVLSDGYFNYIT,inactive
3,NYTSCNFNVYNSMFFRRYTM,3.2 ± 0.053
4,NYVLGGCNLGSSGCRVRLSC,inactive
5,NYVLRSMSGTRFRALWRVAP,inactive
6,NYVPQSGYNVDNVLNILTKL,inactive
7,NYYRC,inactive
8,PAQLHNTVHL,inactive
9,PCASLM,inactive
10,PCRMKLVFFRDE,inactive
11,PCRPGRSRVVHS,0.614 ± 0.27
12,PCSGLKCSKGCWCNKICKYK,1.37 ± 0.13
13,PDEAVGV,-1.19 ± 2.5
14,PDGTILMCGRPMCYIVYGAK,inactive
15,PDLITLIFGSHFGKCSFISY,inactive
16,PDLLTRILERPGVSECFMQW,inactive
17,PDLVNISSSPYRRCGYRWVD,inactive
18,PDMSNIQTFWDSRVMGRTR,inactive
19,PDYEHKVSLLEGKRAYLEHF,inactive
20,PDYGMSLCHLPTWMW,inactive
21,PEGPDLTLILAIKPKLSCRG,inactive
22,PEMSSSGAKAKYPTSMTS,inactive
23,PEYCKAWLRWKPISVYTQVW,inactive
24,PFDHTSHNVVRKLLSSELLR,inactive

row,Substance,amyloid nucleation score
1,PFLCFRIYFSACWINLTLNL,1.78 ± 0.086
2,PFLLSFKGNMQADSPGC,inactive
3,PFLLSMNVGQGFRRV,inactive
4,PFNLPMARNETWGTVQAKIR,inactive
5,PFPFSNLLERV,0.364 ± 0.34
6,PFTLSSMVSVLPMGFRIGDK,inactive
7,PFTPFSHVR,inactive
8,PFYFCGHSQYSWTAW,inactive
9,PGISRNFVNGPRWSMFS,inactive
10,PGLCGNGHNDHKTVNIEVYH,inactive
11,PGNEEVGTNCMLTSNLTYVH,inactive
12,PGVDERT,inactive
13,PGWVDHIEAISRTVRGWFGP,1.77 ± 0.12
14,PHNGHKNSWCTVPGSSCRSV,1.14 ± 0.18
15,PIILKIPV,inactive
16,PINWECWDQELEGLHDMQAI,inactive
17,PIPHML,-0.592 ± 0.75
18,PIPLIPFE,inactive
19,PIRWYRRSLFLCWLTDDRLG,inactive
20,PIYDRFTSKIACLNMMVDLR,0.101 ± 0.29
21,PKISFSGWM,inactive
22,PLKIYIGNQLV,inactive
23,PLLGSIFRFWWRGDTLMYRL,inactive
24,PLLMDPTFPFAIRTDMVSLR,inactive

row,Substance,amyloid nucleation score
1,PLMRTGEDISPERQRDGRGK,inactive
2,PLSNGELFRNATLNDGIWGE,inactive
3,PLTLIQDQQGRVSFSKA,inactive
4,PLTVI,inactive
5,PMHLTKVHVVRNFVTQSTRG,inactive
6,PMLVALWCMGKTN,-0.521 ± 1.4
7,PMQAS,inactive
8,PNEMGSSVMENNWTIHNFGM,inactive
9,PNFLRTCLLTYRGRSY,inactive
10,PNGALK,inactive
11,PNGHLLYMYFFMRDGSSDRG,inactive
12,PNHEFYRARFRLCNAICTTV,inactive
13,PNQYWQ,inactive
14,PPCYKI,inactive
15,PQLWSMYHSGP,-0.586 ± 1.4
16,PRMRFILGFVIIEKENDRVK,-0.431 ± 0.62
17,PRVFGRVTSRMFLDFVLNF,0.982 ± 0.14
18,PSHIGLL,inactive
19,PSQAFS,inactive
20,PSQHMRSARRQVGKSTSNEG,inactive
21,PSSRT,inactive
22,PTAHYWSVRSRSIDPPACQW,inactive
23,PTFVPARSRYSLNVFNPLDE,inactive
24,PTKDVMVGSK,inactive

row,Substance,amyloid nucleation score
1,PTSSKLKFAFINYVLTVSTS,inactive
2,PTSVY,0.481 ± 0.32
3,PTYAC,inactive
4,PVDIVHVHAIRIMFMEGSDV,inactive
5,PVEWP,-0.114 ± 0.78
6,PVGVMTVSDLLFDYFAFRSF,inactive
7,PVITSYSSIYVSCDIVW,inactive
8,PVLGPAEGITIGRGV,inactive
9,PVLLIRSKFDQRRAWSFHTV,inactive
10,PVLWPLFKYVCFLTW,inactive
11,PVSLNDIYIIKCANKNYEVI,inactive
12,PVWLCSLPR,inactive
13,PWKLYYNFQVLLLNAGHLML,inactive
14,PYFRMVNYYFFMTVSGRFNF,-0.507 ± 1
15,PYLRMG,inactive
16,PYMITILHFISHATVLNTSV,inactive
17,PYSKELVHVTSSSATFTRCE,inactive
18,PYVQRNVCCAPV,inactive
19,QAIQPSMQGLWQRALTSRSP,inactive
20,QAQVDKCLLARFVGL,inactive
21,QATFGWTANSSLFFSRDFLA,inactive
22,QAVTMRTGVKCYQIGRAWIG,-0.313 ± 0.84
23,QCFKDRMWHGICREPVAKIG,inactive
24,QDALVSCWKFGAVSDQCDYW,inactive

# From the supplement of paper PMC12042874
